The nanobody polyreactivity screen of Harvey et al. (2022)

Experiment: yeast display, Sf9 membrane polyspecificity reagent, FACS + sequencing; frameworks hold sequencing errors
How it was run: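 Genes from sorted yeast were amplified by colony PCR, read by MiSeq 2 × 250 sequencing and filtered on CDR length. These cells carried a synthetic nanobody library in Saccharomyces cerevisiae BJ5465 and were sorted by FACS into low and high (top ~1%) gates on anti-HA and streptavidin fluorescence. Polyreactivity is labelled according to the gate of origin.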

Sequence | polyreactivity (PSR sort gate)
QVQLVESGGGLVQAGGSLRLSFAASGSTFKRYLMGWYRQAPGKERELVAAISSRGGSTYYADSVKGRFTISRDYANNTVYLQMISLKPEYTAVFYCATANVRAEDYWGQGTQVTVSS | high polyreactivity
QVQLVESGGGLVQAGGSLRISCAASGSTFFLYAMGWYRQAPGKERELVAAISTTGGSTNYADSVKGRFTISRDNAKYTFELQINSLKPEDTAVYYCAAGPSAQSIYDHWGQGTQVTVSS | low polyreactivity
QVQLVESGGGLVQAGGSLRLICAASGIIFRVYAMGWYRQAPGKERELVATITWSGGSTFYADSVKGRFTISRDNAKNTVDLQRNSLKPEDTAVYYCAARGYLRGEQLYVLIRYDYWGQGTQVTVSS | low polyreactivity
QVQLVESGGGLVQAGGSLRLSCAASGSIFYGYAMGWYRQAPGKERELVAAIRYSDGSTYYADSVKGRFTISRDNAKNTVYLQMNSLKPEDTAVYYCAKKRRNYIGYYYWGQGTQVTVSS | high polyreactivity
QVQLVESGGGLVQAGGSLRLSCAASGRTLFHYAMGWYRQAPGKERELVAAIRNSDGSTYYADSVKGRFTISRDNAKNTVYLQMNSLKPEDTAVYYCAAVRRYHSYPDGGYWGQGTQVTVSS | high polyreactivity
QVQLEESGGGLVQAGGSLRLSCAASGGIFDYNSMGWYRQAPGKERELVAAISSGASTTYADSVKGRFTISRDNAKNTVYLQMNSLKPEATAVYYCAAYWKSRYLSGLEYYSWGQGTQVTVSS | low polyreactivity
QVQLVESGGGLVQAGGSLRLSCAASGSTYLYAIRWYRQAPGKERELVAAISWSGGSTYYADSVKGRFTISRDNAKNTVYLQMNSLKPEDTAVYYCNAYTYPFDWGQGTQVTVSS | high polyreactivity
QVQIVESGGGLVQAGGSLRLSCAASGFTFYYYAMGWYRQAPGKERELVAAIDTGGSTNYADSVKGRFTISRDNAKNTVYLQMNRLKPEDTSVYYCNADTPDHYGHYDYWGQGTQVTVSS | low polyreactivity
QVQLVESGGGLVQAGGSLRLSCAASGFTFPFYTMGWYRQAPGKERELVAAITRSGASTFYADSVKGRFTISRDNAMNTVYLQMNSLKPEDTAVYYCATQLHRYYQDDYWGQGTQVTVSS | high polyreactivity
QVQLVESGGGLVQAGGRLRLSCAASGFTQGSYAMGWHRQAPGKEREFVAGITDSGGSTYYADSVKGRYTISRDNAKNTVYLQMNSLKPEDTAVYDCNADFAPWDKQDYPYDYDYWGQGTQVTVSS | low polyreactivity
QVQLVESGGGLVQAGGSLRLSCAASGSTFPKYAMGWYRQAPGKERELVASISVTTGSTYYADSVKGRFTISRDNAKNTVYLQMNSLKPEDTAVYYCAVGRTVAHRFIAGDYWGQGTQVTVSS | high polyreactivity
QVQLVESGGGLVQAGGSLRLSCAASGSTFALYGMGWYRQAPGKERELVAAINSGVSTNYADSVKGRFTISRDNAKNTVYLQMNSLKPEDTAVYYCNADYYIAPYDSWGQGTQVTVSS | low polyreactivity
QVQLVESGGGLVQAGGSLRLSCAASGSTLPNNAMGWYRQAPGKERELVAAISSSGGSTYYADSVKGRFTISRDNAKNTVYLQMNSLKPEDTAVYYCAAVYSRGTYNYWGQGTQVTVSS | high polyreactivity
QVQLVESGGGLVQAGGSLRLSCAASGRTFVDYAMGWYRQAPGKERELVAAINTGGRTKYADSVKGRFTISRDNAKITVYLQMNSLKPEDTAVYYCAARKQYGGVRGDYWGQGTQVTVSS | high polyreactivity
QVQLVESGGGLVQAGGSLRLSCAASGRIFGLNAMGWYRQAPGQERELVAAIDIIGGSTYYADSVKGRFTISRDNAKNTVYLQMNSLKPEDTAVYNCAAEGDFWRFVEYDYWGQGTQVTVSS | low polyreactivity
QVQLVESGGGLVQAGGSLRLSCAASGSTFSEYGMGWYRQAPGKERELVARITSGGSPYYADSVKGRFTISRDNAKYTVYLQMNSLKPEDTAVYYCATVKTRDYWGQGTQVTVSS | low polyreactivity
QVQLVESGGGLVQAGGSLRFSCAASGLTFNHNAMGWYRQAPGKERELVAAISRRGGSTYYADSVKGRFTISRDNAKNTVYVQMNSLKPEDTAVYYCNKDFPTLYSRGRYIYWGQGTQVTVSS | high polyreactivity
QVQLVESGGGLVQAGGSLRLSCAASGFIFRYNPMGWYRQAPGKERELVAVITSGGRTYYADSVKGRFTISRDNAKNTVYLQMNSLKPEDTAVYYCNGDSRHRRNYDYWGQGSQVTVSS | high polyreactivity
QVQLVESGGGLVQAGGSLRLSCAASGSIFYLYAMGWYRQAPGKERELVAAITSIGGSTYADSVKGRFTISRDNAKNTVYLQMNSLKPEDTAVYYCNADGLYEKWGPWTVPYYYWGQGTQVTVSS | low polyreactivity
QVQLVESGGGLVQAGGSLRLSCAASGFIFSYNAMGWYRQAPGKERELVAAISARGGSTYYADSVKGRFTISRDNAKNTVYLQMNSLKPEDTAVYYCNRKQAGHAQGYDYWGQGTQVTVSS | high polyreactivity
QVQLVESGGGLVQAGGSLRLSCAASGRIFGINAMGWYRQAPGKERELVAAISWRSGSTYYADSVKGRFTISRDNAKNTVYLQMNSLKPEDTAVYYCAAKQDQDYYWGQGTQVTVSS | low polyreactivity
QVQLVESGGGLVQEGGSLRLSCAASGRTFAIYTMGCYRQAPGKERELVATNSGSAGNTYYADSVKGRYTISRDNAKNTVYLQMNSLIPEDTAVYYCAARQRKSRQIVLLDYWGQGTQVTVSS | high polyreactivity

Sequence | polyreactivity (PSR sort gate)
QVQLVESGGGLGQAGGSLRLSCAASGSTFARNTMGWYRQAPGKERELVAVITRGDSTYYADSVKGRFTISRDNAKNTVNLQMNSLKPEDTAVYYCNAYFRYAYPSKMDYWGQGTQVTVSS | low polyreactivity
QVQLVESGGGLVQAGGSLRLSCAASGIIFPGYAMGWYRQAPGKERELVAAISRSGASTYYADSVKGRFTISRDNAKNTVYLQMNSLKPEDTAVYYCAAEWYRGGEYRRYDYWGQGTQVTVSS | high polyreactivity
QVQLVESGGGLVQAGGSLRLSCDASGRIFSLYAMGWYRQAPGKERELVAAISRRSGNTNYADSVKGRFTISRDNAKNNVFLQLNSLKPEDTAVYFCAARPGAISSTSPYDYWGEGTQVTVSS | high polyreactivity
QVQLVESVGGLVQAGGSLRLSCAASGITFYKYAMGWYRQAPGKERELVASIDRVGITNYADSVKGRFTISRDNAKNTVYLQMNSLKPEDTAVFYCNADYYRYYSITYGGDYWGQGTQVTVSS | high polyreactivity
QVQLVESGGGLVQAGGSLRLSCAASGSTFDVYAMGWYRQAPGKERELVAAIRSSGGSTFYADSVKGRFTISRDNAKNIVYLQMISLNPEDTAVYYCAARSFVVSGYNKYYEYGYWGQGTHVTVSS | low polyreactivity
QVQLVESGGGLVQAGGSLRLSCAASGSIFDHYVMGWYRQSPGKERELVAAITSGDRTNYADSVKGRFTISRDNAKNTVYLQMNSLKPEDTAVYYCNADYQSYFYYTTWYYEYDYWGQGTQVTVSS | low polyreactivity
QVQLVESGGGLVQAGGSLRLSCAASGLTFTSYAMGWYRQAPGKERELVAAIDWSGGRTYYADSVKGRFTISRDNAKNTVYLQMNSLKPEDTAVYYCAAYSRNRSLRFNYWGQGTQVTVSS | high polyreactivity
HVQLVESGGGLVQAGGSLRLSCAASGSIFEYYAMGWYRQAPGKERELVASISRGTSTNYADSVKGRFTISRDNAKNTVYLQMNSLKPEDTAVYYCNADGWTVVLDTYGSWGQGTQVTVSS | low polyreactivity
QVQLVESGGGLVQAGGSLRLSCAASGSIFVYYAMGWYRQAPGKERELVAAITSGGSTNYADSVKGRFTISRDNAQNTVYLQMNSLKPEDTAVYYCAVVTRAHPEDYWGQGTQVTVSS | high polyreactivity
QVQLEDSGGGLVQAGGSLRLSCAASGFIFRGYGMGWYRQAPGKERELLASITTGGRTNYADSVKGRFTISRDNAKNTVYLQMNCLKPEDTAVYYCAATYYLRLRRPYWQGFNYWGQGTQVTVSS | high polyreactivity
QVQLVESGGGLVQAGGSLRLSCAASGSTFYSNAMGWYRQAPRKERELVASISWSSGSTYYADSVKGRFTISRDNAKNTVYLQMNSLKPEDTAVYYCATDAGGPYRFGYWGQGTQVTVSS | low polyreactivity
QVQLVESGGGLVQAGGSLRLSCAASGRTFYPNAMGWYRQAPGKERELVAGIRSSGDSTYYADSVKGRFTISRDNAKNTVYLQMNSLKPEDTAVYYCNRDLTPSYDYWGQGTQVTVSS | low polyreactivity
QVQLVESGGGLVQEGGSLRLSCAASGFTFDSNAMGWYRQAPGKERELVAAISTGGSTYYADSVKGRFTISRDNAKNTVYLQMNSLKPEDTAVYYCARDPPYPDTWYGYWGQGTQVTVSS | low polyreactivity
QVQRVESGGGLVQAGGSLRLSCAASGRTFWRNAMGWYRQAPGKERELVARISWSGGSTYYADSVKGRFTISRDNAKNTVYLQMNSLKPEDTAVYYCAKYYPGRSAFSDGNYWVQGTQVTVSS | low polyreactivity
QVQLVESGGGLVQAGGSLRLSCAASGRIFTSNAMGWYRQAPGKEREFVAAITKRGGRTYYADSVKGRFTISRDNAKNTVYLQMNSLKPEDTAVYYCAAGATGTSYYGGDYWGQGTQVTVSS | high polyreactivity
QFQLVESGGGLVQAGGSLRLSCAASALIFTPNAMGSYIPAPGKESELVAAISSSGRTSYADSVKGRFTISRDNAKNAVYLQMNSLKPEDTAVYYSNATWRWTRRGYVYWGQGTQVTLSS | low polyreactivity
QVQLVESGGGLVQAGGSLRLSCAASGSIFWNNAMGWYRQAPGKERELVAGISGGSTNYADSVKGRFTISRDNAKNTVYLQMNSLKPEDTAVYYCATERQWESRFEAYDYWGQGTQVTVSS | low polyreactivity
QVQLVESGGCLDQAGGSLRLSCAASGFTFYNYAMGWYRQEPGKETQLVAAITRNGGRTYYADSVKWRFTISRDNAKYTVYLQMNSLKPEDTAFYYCASKKYKTVRYDYWGQGTQGTVSS | high polyreactivity
QVQLVESGGGLVQAGGSLRLSCAASGSTFGRNAMGWYRQAPGKERELVATITKSGGSTYYADSVKGRFTISRDNAKNTVYLQMNSLKPEDTAVYYCAKGVYYKVLRGGGDYWGQGTQVTVSS | high polyreactivity
QVQLVESGGGLVQAGGSLRLSCAASGHIFLHNAMGWYRQAPGKERELVAGITYSDTSTYADSVKGRFTISRDNAKNTVYLQMNSLKPEDTAVYYCEYYYWGQGTQVTVSS | low polyreactivity
QVQLVESGGGLDQAGGSLRLSCAASGYVMGWYRQAPGKERELVASITRGTSTYYADSVKGRFTISRDNAKNTVYLQMNSLKPEDTAVYYCAARTTSGEWPPGKIGTYLYDYWGQGTQVTVSS | low polyreactivity
